Experimental data published in the supplement of paper PMC9170038.

Test system: MS2 coat protein
Test: apparent KD of MS2 coat protein; designed switch direction (-1 OFF switch, 1 ON switch): -1; higher = weaker reporter binding
How it was run: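 Designed RNA switches sharing common flanks were transcribed on Illumina chips by stalled E. coli RNA polymerase. They were titrated with SNAP-549-labelled MS2 coat protein, from 0.7 or 1.5 nM doubling to 3 µM, in Tris-HCl pH 7.5 buffer with KCl, MgCl2, BSA, DTT, tRNA and Tween-20. Titrations ran without input, with 200 uM small-molecule ligand, or with an oligonucleotide input. The apparent KD of each design is the median over its clusters, after curve-fitting of normalised cluster fluorescence.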

[1] = Eterna round: R95, input ligand: FMN 200 uM
[2] = Eterna round: R95, input ligand: microRNA oligo, concentration not stated
[3] = Eterna round: R95, input ligand: none
[4] = input ligand: microRNA oligo, concentration not stated

| Sequence | apparent KD of MS2 coat protein [1] [µM] | apparent KD of MS2 coat protein [2] [µM] | apparent KD of MS2 coat protein [3] [µM] | apparent KD of MS2 coat protein (input ligand: FMN 200 uM) [µM] | apparent KD of MS2 coat protein (input ligand: none) [µM] | apparent KD of MS2 coat protein [4] [µM] |
| --- | --- | --- | --- | --- | --- | --- |
| ACAACAAGCUUUUUGUUCGUAGAACAUGAUGCUCUAGUCACAUGAGGAUCACCCAUGUCAACCAGAUAGAUAGUUGA [JR_SV3TOV2_Sub063] (puzzle: Sensor v3, turn-off variant 2) | 0.0531 | 0.143 | 0.0504 |  |  |  |
| UCCAGGCGAGGAUAUACAAAGAUUUUUUCGUUUUGUCUCGAACAUGAGGAUCACCCAUGUAGAAGGUGCUUCUG [JR_Ex2_Sub012] (Eterna round: R97, puzzle: Exclusion 2) |  |  |  | 0.149 | 0.115 |  |
| AUAGUAGAAGUGAGGAUAUCGUAGAUUUUAGGAAACGAGAAGGCACAUGAGGAUCACCCAUGUAAGAUGGAGGU [JR_BMOE4_Sub051] (Eterna round: R96, puzzle: Brourd's mod of Exclusion 4) |  |  |  | 0.38 | 0.132 | 0.126 |
| GAAAAGGUAGGAUAUACGAAAAAAAAGGGUAGAAAAAAAAAACAUGAGGAUCACCCAUGUAGAAGGACCAAAAG [salish99_ex2_r3_059] (puzzle: Exclusion 2) | 0.134 | 0.0266 | 0.0137 |  |  |  |
| CUCAUGUGAGGAUAUAGUGCGUCUUCUAUUAUUAUUGAGUACUAGAAGGCACAUGAGGAUCACCCAUGUAGCAC [Ex4 - 3 - 45] (puzzle: Exclusion 4) |  | 0.0419 |  |  |  |  |
| UAUUUAAGAGGAUAUACAUGAGGAUCACCCAUGUAUAUUAAAAUACAUGAUUUUUUAUGUAGAAGGCUUGGGUA [-21.5, -18.3 kcal, 35% A] (Eterna round: R97, puzzle: Exclusion 3) |  |  |  | 0.0236 | 0.0169 |  |
| GUGGAGGUAGGAUAUCCGCUUCCGGACAUGAGGAUCACCCAUGUUGUUCGGAUUGGACAGGGAGAAGGGCCCACAA [Eternabot (Original) Solution 37] (Eterna round: R97, puzzle: Exclusion 5) |  |  |  | 0.0449 | 0.0393 |  |
| GUGUACGUAGGAUAUACAUGAGGAUCACCCAUGUGAAUAAGAUAGAAUAAGAUAAAGUGUAGAAGGACGAGUGU [Excluse me!!! 6 - Jieux - Exclusion 3] (puzzle: Exclusion 3) |  | 0.0304 |  |  |  |  |
| UGAUCUACUGAGGAUAUUAUAUCACCCGACUGAUAAGAAGGCAGUACAUGAGGAUCACCCAUGUGGGUAGCCAU [Polaris9] (Eterna round: R97, puzzle: Exclusion 6) |  |  |  | 0.0508 | 0.0347 |  |
| UAAAUGCUGCGAGGAUAUACAUGAGGAUCACCCAUGUGGAUGUCUGAGGCUUUGCCUCAGACGAUGUAGAAGGCGCAGUAAAAU [Mat - Exclusion NG 2 - Mod of JL - D52] (Eterna round: R96, puzzle: Exclusion NG 2) |  |  |  | 0.134 | 0.0225 | 0.0157 |
| CCGGAAAGGAAGGAUAUGCUUGACGAAAGUCAAGCAGAAGGUCCUACAUGAGGAUCACCCAUGUGGCCUCCCGG [Mat - Exclusion 6 - Eli Mod - D48] (Eterna round: R97, puzzle: Exclusion 6) |  |  |  | 0.737 | 0.128 |  |
| UACAUGAGGAUCACCCAUGUUUUGUCGUGUAUGGUAUUUAUCUAGGAUAUCAAUUUAGUUAGUUAUGAGAAGGAGAAUAUUAAU [JMF's solution 76] (Eterna round: R96, puzzle: Exclusion NG 3) |  |  |  | 0.048 | 0.0438 | 0.0211 |
| UGUUGUCGCGCAGGAUAUGAGGAUCACCCAUGUAGAGGAUAUGAAAAGAAGGCUCUGAGGAUUACCCAGAAGGGCGGGACAACU [pwkr exNG2 2xF5 2xFMN.25] (Eterna round: R96, puzzle: Exclusion NG 2) |  |  |  | 0.8 | 0.4 | 0.27 |
| CUUUUGUGAGGAUAUCAGUAGUAAAUAAAUAAUAUUACUACUGAGAAGGCACAUGAGGAUCACCCAUGUUCCUC [salish99_ex3_r3_083] (puzzle: Exclusion 4) |  | 0.0423 |  |  |  |  |
| GCCAGAGCAGGAUAUUGAAUAAUUCACAUGAGGAUCACCCAUGUCCAGCGAAAGCUGGAACGAGAAGGGCUCUGGC [Fiskers Ex 5 - 5] (puzzle: Exclusion 5) | 0.0125 | 0.0117 | 0.0111 |  |  |  |
| AGCCCUAAUGUCAGGAUAUGCAUCCUUAAUGGACGGCAGAAGGGACAUGAGGAUCACCCAUGUAAAUAGAAAUU [Direised] (puzzle: Brourd's mod of Exclusion 4) |  | 0.0314 |  |  |  |  |
| CUUAAAAGGAAGGAUAUGCUAGACGAAAGUCUAGCAGAAGGUCCUACAUGAGGAUCACCCAUGUGUCCUGUAAG [Mat - Exclusion 6 - Eli Mod - D41] (Eterna round: R97, puzzle: Exclusion 6) |  |  |  | 0.0956 | 0.0539 |  |

| Sequence | apparent KD of MS2 coat protein [1] [µM] | apparent KD of MS2 coat protein [2] [µM] | apparent KD of MS2 coat protein [3] [µM] | apparent KD of MS2 coat protein (input ligand: FMN 200 uM) [µM] | apparent KD of MS2 coat protein (input ligand: none) [µM] | apparent KD of MS2 coat protein [4] [µM] |
| --- | --- | --- | --- | --- | --- | --- |
| UAAUAACAAGCAGGAUCCUACAUGAGGAUCACCCAUGUGCUCGUCUUAUAAAGUACUAUCACGAAAGUGAUAGUACU [Mat - Sensor v3 - turn-off var 1 - Eli Mod - D73] (puzzle: Sensor v3, turn-off variant 1) | 0.208 | 0.0719 | 0.25 |  |  |  |
| GAAAAGGUAGGAUAUACGAAAAAGAAGGGUAGAAAAAAAACACAUGAGGAUCACCCAUGUAGAAGGACCAAAAG [salish99_ex2_r3_026] (puzzle: Exclusion 2) | 0.056 | 0.0241 | 0.021 |  |  |  |
| UAUUCGCAAGCAAAUGGGUACAUGAGGAUCACCCAUGUGCUCGUCUUAUAAGGUACUGUGACGAAAGUCACGGUACC [mod--Eli9] (Eterna round: R97, puzzle: Sensor, turn-off variant 1) |  |  |  | 0.0209 | 0.0203 |  |
| AUAUUGUGAGGAUAUGAACUUAGUAUCGAAAGAUAGUAAGUUCAGAAGGCACAUGAGGAUCACCCAUGUUUCUC [Long static hairpin v8] (Eterna round: R97, puzzle: Exclusion 4) |  |  |  | 0.399 | 0.0698 |  |
| GGUCCACAUGAGGAUCACCCAUGUUAGGAUAUCUCCUGCCUCCUCACUGGAGGCAGACAGAGAAGGAACAUCAA [Eratxe] (puzzle: Exclusion 1) | 0.0783 | 0.022 | 0.0239 |  |  |  |
| GAGGAACAUGAGGAUCACCCAUGUAAGGAUAUGCAAAGAGAGGUAGUAGAAGGAGAAGGCAGAAGGUACAAGGA [JR_Exclu1_Sub074] (puzzle: Exclusion 1) | 0.0477 | 0.0361 | 0.05 |  |  |  |
| GCCUCACAUGAGGAUCACCCAUGUCAGGAUAUCUCGUGCGCAGUAAUUAUCUGGCUAAAGAGAAGGGACAUUAA [Bedile] (puzzle: Exclusion 1) |  | 0.0466 |  |  |  |  |
| CUCCUCGUGGCGCCUAAACACAUGAGGAUCACCCAUGUACAGGCUUUUUGCCGUCUUAUAAUAAAACCGAGGAGACG [Ataesarxe] (puzzle: Sensor v3, turn-off variant 1) | 0.0166 | 0.0188 | 0.0166 |  |  |  |
| UCGUUGUGAGGAUAUAUAUGCAGUAAUCCUUUAAAUUUAUAACUUGAGGAUCACCCAAGUAGAAGGCGCGACGU [JR_Ex2_Sub056] (Eterna round: R97, puzzle: Exclusion 2) |  |  |  | 0.16 | 0.0302 |  |
| ACACAGCAAGGAUAUACAUGAGGAUCACCCAUGUGGUGGCAGUUACGGUAGGACUAGUGUAGAAGGUGCAGUGG [EX3 #30] (Eterna round: R97, puzzle: Exclusion 3) |  |  |  | 0.487 | 0.668 |  |
| UUGGUUGUGGUAGGAUAUCCGUUGGAAACCUUCGGAGAAGGACCACAGUCACUGGGUCUUUGUCUGGUGGACGGUGAAAACCGU [pwkr exNG1 F6.22] (Eterna round: R96, puzzle: Exclusion NG 1) |  |  |  | 0.138 | 0.73 | 0.498 |
| GACCGGACGUGGUCUGGUAACAUGAGGAUCACCCAUGUAGGUCUAAGAACAUGCCUUUUGCACGCUCGUCUUAUAUA [JR_SV3TOV1_Sub063] (puzzle: Sensor v3, turn-off variant 1) | 0.0547 | 0.0382 | 0.0638 |  |  |  |
| UACCUGAGGCUUUGCUUUAGGCUUACAUGAGGAUCACCCAUGUAGGAUAUGGUAGGCAAAGCUUACCAGAAGGACAUGGAAAUU [Mat - Exclusion NG 3 - Mod of JL - D21] (Eterna round: R96, puzzle: Exclusion NG 3) |  |  |  |  |  | 0.0132 |
| UUUAUAUAGUAAGGAUAUGUAUUAUUGUUAUCAACAGAAGGUACUGACAUGAGGAUCACCCAUGUUUUAGUGUGGGCAUGUAGU [JMF's solution 96] (Eterna round: R96, puzzle: Exclusion NG 1) |  |  |  | 0.425 | 0.446 | 0.277 |
| GGAUAAAAGUCAGGAUAUACGUAUCACUAACGAGUAGAAGGGACACAUGAGGAUCACCCAUGUGAGUUCUCAAUAAGAAACACG [Prohibition 62 - Jieux - Exclusion NG 1] (Eterna round: R96, puzzle: Exclusion NG 1) |  |  |  | 0.0138 | 0.0149 | 0.0122 |
| CGUCUGUAAGGAUAUGGUUACAUCGACAUGAGGAUCACCCAUGUGACGUGGGACUAGUGAUUAGAAGGUACGAACG [EX5 #65] (Eterna round: R97, puzzle: Exclusion 5) |  |  |  | 0.0552 | 0.0594 |  |
| UAUAUGUGAGGAUAUCAGGUGUGCUAGCGAACUGGUACAUCUGAGAAGGCACAUGAGGAUCACCCAUGUAUCUU [Mat - Exclusion 4 - Mod of JL - D46] (puzzle: Exclusion 4) |  | 0.0263 |  |  |  |  |
